In doi:10.1101/2020.10.06.326603 (bioRxiv, 2020):
Read-outs that look alike come from different tables or passages of the source.

B1: IscS S10Q, H247P, Q248L variant (enzyme, E. coli)
chain: MKLPIYLDYQATTPVDPRVAEKMMQFMTMDGTFGNPASRSHRFGWQAEEAVDIARNQIADLVGADPREIVFTSGATESDNLAIKGAANFYQKKGKHIITSKTEHKAVLDTCRQLEREGFEVTYLAPQRNGIIDLKELEAAMRDDTILVSIMHVNNEIGVVQDIAAIGEMCRARGIIYHVDATQSVGKLPIDLSQLKVDLMSFSGHKIYGPKGIGALYVRRKPRVRIEAQMHGGGHERGMRSGTLPVPLIVGMGEAYRIAKEEMATEMERLRGLRNRLWNGIKDIEEVYLNGDLEHGAPNILNVSFNYVEGESLIMALKDLAVSSGSACTSASLEPSYVLRALGLNDELAHSSIRFSLGRFTTEEEIDYTIELVRKSIGRLRDLSPLWEMYKQGVDLNSIEWAHH

How the values were obtained:
[1] = molecular target: the molecule itself; test: cell-based or functional assay
[2] = molecular target: the molecule itself; test: SEC
[3] = molecular target: the molecule itself
[4] = molecular target: the molecule itself; test: SEC; remark: listed apart in the source
[5] = molecular target: B1; test: native MS
[6] = molecular target: IscS^QPL-IscU complex (E. coli, UniProt P0A6B7 1-404; P0ACD4 1-128, S10Q | H247P | Q248L); test: native MS

| Binder | cysteine desulfurase activity under standard conditions (kcat) [1] | stoichiometry N [2] | Kd [3] | stoichiometry N [4] | binding result [5] | binding result [6] |
| --- | --- | --- | --- | --- | --- | --- |
| IscS S10H, H247P, Q248L variant (enzyme, E. coli) MKLPIYLDYHATTPVDPRVAEKMMQFMTMDGTFGNPASRSHRFGWQAEEAVDIARNQIADLVGADPREIVFTSGATESDNLAIKGAANFYQKKGKHIITSKTEHKAVLDTCRQLEREGFEVTYLAPQRNGIIDLKELEAAMRDDTILVSIMHVNNEIGVVQDIAAIGEMCRARGIIYHVDATQSVGKLPIDLSQLKVDLMSFSGHKIYGPKGIGALYVRRKPRVRIEAQMHGGGHERGMRSGTLPVPLIVGMGEAYRIAKEEMATEMERLRGLRNRLWNGIKDIEEVYLNGDLEHGAPNILNVSFNYVEGESLIMALKDLAVSSGSACTSASLEPSYVLRALGLNDELAHSSIRFSLGRFTTEEEIDYTIELVRKSIGRLRDLSPLWEMYKQGVDLNSIEWAHH | 0.025 s⁻¹ | 2 | 8 µM | – | – | – |
| B1 | 0.00367 s⁻¹ | – | 32 µM | 2 | – | – |
| IscS S10N, H247P, Q248L variant (enzyme, E. coli) MKLPIYLDYNATTPVDPRVAEKMMQFMTMDGTFGNPASRSHRFGWQAEEAVDIARNQIADLVGADPREIVFTSGATESDNLAIKGAANFYQKKGKHIITSKTEHKAVLDTCRQLEREGFEVTYLAPQRNGIIDLKELEAAMRDDTILVSIMHVNNEIGVVQDIAAIGEMCRARGIIYHVDATQSVGKLPIDLSQLKVDLMSFSGHKIYGPKGIGALYVRRKPRVRIEAQMHGGGHERGMRSGTLPVPLIVGMGEAYRIAKEEMATEMERLRGLRNRLWNGIKDIEEVYLNGDLEHGAPNILNVSFNYVEGESLIMALKDLAVSSGSACTSASLEPSYVLRALGLNDELAHSSIRFSLGRFTTEEEIDYTIELVRKSIGRLRDLSPLWEMYKQGVDLNSIEWAHH | 0.148 s⁻¹ | 2 | 0.8 µM | – | – | – |
| CyaY (E. coli homolog of frataxin) (natural protein, UniProt P27838 1-106, looked up) MNDSEFHRLADQLWLTIEERLDDWDGDSDIDCEINGGVLTITFENGSKIIINRQEPLHQVWLATKQGGYHFDLKGDEWICDRSGETFWDLLEQAATQQAGETVSFR | – | – | – | – | binds | binds |
